Test results taken from the supplement of paper PMC12042874.
± gives the uncertainty stated by the source.

Assay: amyloid nucleation score (Sup35N fusion, yeast selection) (log enrichment); library NNK2; higher = more nucleation; inactive = no reads after selection
Procedure, shortened: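 After 24 hours of induction with 100 μM copper sulfate, psi-negative yeast expressing peptides of 20 random codons fused to Sup35N were grown for 7 days at 30°C on medium lacking adenine and uracil. Input and output plasmid inserts were sequenced with Illumina, and sequences with under 100 input reads were discarded. Scores for nucleation are the DiMSum log enrichment of output over input reads, centred on the mode score of non-aggregating sequences.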

Substance: YAPLSTDPYILVHCIRPRLA
- amyloid nucleation score: -0.558 ± 1

Substance: RYMKAG
- amyloid nucleation score: -0.558 ± 0.54

Substance: IEGTVRYYPVSNFT
- amyloid nucleation score: inactive

Substance: HKLCGYIYIRVIRSWKWYKQ
- amyloid nucleation score: -0.306 ± 0.63

Substance: TLCWLYLWVYRCKDYEELTC
- amyloid nucleation score: -0.167 ± 0.63

Substance: SSSALEANINQSMEDIKEAF
- amyloid nucleation score: -0.427 ± 1.1

Substance: MFPVPLVNIGMPDRWVKEKD
- amyloid nucleation score: 0.469 ± 0.34

Substance: TFDRCPNNSGNDMTNGPESW
- amyloid nucleation score: 1.21 ± 0.096

Substance: EYVADHGQIADGR
- amyloid nucleation score: 0.782 ± 0.26

Substance: SFGMQTEMYPGSIGLV
- amyloid nucleation score: inactive

Substance: LWQVRIRPQH
- amyloid nucleation score: 1.37 ± 0.12

Substance: IKMRNPSSRSSASGQQRGHV
- amyloid nucleation score: 0.167 ± 0.26

Substance: CFDKLAVMACKSSGWHNPPT
- amyloid nucleation score: 0.75 ± 0.43

Substance: RYFDDWVNSRTVKCGWDWYA
- amyloid nucleation score: 0.641 ± 0.17

Substance: SVRFPITVMFRFSRWFTETY
- amyloid nucleation score: -0.264 ± 0.37

Substance: YDIVVNYLNHHQR
- amyloid nucleation score: 4.88 ± 0.11

Substance: VCRNDRLVWCKLGVEFSGVA
- amyloid nucleation score: 1.31 ± 0.26

Substance: FISMNLEVSN
- amyloid nucleation score: -0.26 ± 1

Substance: MRMVA
- amyloid nucleation score: -0.723 ± 0.49

Substance: SAINIFGALAKCFMVMLALF
- amyloid nucleation score: inactive

Substance: DFDGRRHSDNDLSWNSNF
- amyloid nucleation score: -1.42 ± 1.1

Substance: RSSWPTLKQGCSKSRQIWRA
- amyloid nucleation score: 0.182 ± 0.3

Substance: DRLLDLIVWGVFWQLGMRFL
- amyloid nucleation score: inactive

Substance: GGTPRSINVF
- amyloid nucleation score: 0.201 ± 0.8

Substance: PFDFAGA
- amyloid nucleation score: 2.91 ± 0.087

Substance: LLHYGGSFLAAKFRRMGFTM
- amyloid nucleation score: -0.262 ± 0.56

Substance: EVTWDVLAIVLTLMKKA
- amyloid nucleation score: 4.27 ± 0.083

Substance: SAIRLMGG
- amyloid nucleation score: 5.378 ± 0.048

Substance: NMFRIVASTY
- amyloid nucleation score: 0.598 ± 0.47

Substance: SFYRCGLNYCNGTS
- amyloid nucleation score: 5.94 ± 0.06

Substance: MWWYSFPLGLLWVFNS
- amyloid nucleation score: inactive

Substance: LVLTSLQHGQFVVVVSVVW
- amyloid nucleation score: 0.543 ± 0.31

Substance: VLYVGWFRAKDNIVFLTYGC
- amyloid nucleation score: -0.158 ± 0.61

Substance: VCDVDTNVVTSNWTSCLFRK
- amyloid nucleation score: inactive

Substance: CPSVSSRSRELSLLTDQEVI
- amyloid nucleation score: 0.812 ± 0.4

Substance: SFSHGSDAIGNVYCDNIVYK
- amyloid nucleation score: inactive

Substance: MWQSMLSAVGSVNVMSQLGT
- amyloid nucleation score: 1.53 ± 0.33

Substance: TFFNNWMALKYRNYQFIMSG
- amyloid nucleation score: inactive

Substance: IRWNTTFGFDSEAPTCCATS
- amyloid nucleation score: 0.026 ± 0.8

Substance: CKVHFW
- amyloid nucleation score: 0.596 ± 0.62

Substance: IDKGSKVFTGLGLLFCSKYF
- amyloid nucleation score: 7.2 ± 0.074

Substance: KSIRAYYYVSRQ
- amyloid nucleation score: 0.263 ± 0.25

Substance: SSNNMEIIYVFFLCREAQKL
- amyloid nucleation score: -0.78 ± 1.1

Substance: SLHLRRYIFNT
- amyloid nucleation score: 7.339 ± 0.059

Substance: ACFSNMDCPGGFVHVFALYG
- amyloid nucleation score: inactive

Substance: HFMSYAAWAREWSVEPQ
- amyloid nucleation score: 0.967 ± 0.66

Substance: VKSLLRDLCGPGCMLYMIVH
- amyloid nucleation score: -0.11 ± 0.53

Substance: LRGGTLVDNNLSANNYVYEI
- amyloid nucleation score: -0.967 ± 0.76

Substance: FRMLNRFLWFKVKMGYMHYG
- amyloid nucleation score: -0.618 ± 0.42

Substance: SRVDNVSSAPAISAMGVWCG
- amyloid nucleation score: 1.14 ± 0.38

Substance: NSFRISGLVDLVNNLSGYLS
- amyloid nucleation score: -1.34 ± 0.61

Substance: TVVFYNNIIFGFDFSSAKWL
- amyloid nucleation score: 6.21 ± 0.067

Substance: RTRLS
- amyloid nucleation score: 0.559 ± 0.21

Substance: WSTASSVLIICIQRFF
- amyloid nucleation score: inactive

Substance: KWVGWMWGYEGSLWSSNLWR
- amyloid nucleation score: 0.242 ± 0.77

Substance: HWRFFCMDHNFILSVKDVVA
- amyloid nucleation score: inactive

Substance: RIHYYVVLCLGSRRSTFGLR
- amyloid nucleation score: -0.171 ± 0.28

Substance: FVGTCSHYRGCSVCFITDLL
- amyloid nucleation score: 6.135 ± 0.057

Substance: MEAIVERIGYITYVLNFKER
- amyloid nucleation score: inactive

Substance: TDYHMFYRLDCLPLTTTCPV
- amyloid nucleation score: 4.88 ± 0.087

Substance: NYITSSVCFCCSDPMYTPSR
- amyloid nucleation score: 8.552 ± 0.031

Substance: VESMILSRYLHHILRGNSLC
- amyloid nucleation score: -1.15 ± 1.1

Substance: CDSVVKRIFGTFAGVHLHME
- amyloid nucleation score: -0.228 ± 1.1

Substance: KSHSDSFDYW
- amyloid nucleation score: 0.233 ± 0.74

Substance: NIDICDVWFMNCLYIILVAQ
- amyloid nucleation score: 5.192 ± 0.031

Substance: AMVWGSIFSRKSQGLSHSSG
- amyloid nucleation score: inactive

Substance: ARFFGFYYPTTGIPGNYGFC
- amyloid nucleation score: -0.315 ± 1

Substance: YSYSSFLKVSGLSSDRLGYI
- amyloid nucleation score: -0.133 ± 0.49

Substance: GSYLA
- amyloid nucleation score: 0.697 ± 0.47

Substance: SLVLV
- amyloid nucleation score: 0.803 ± 0.47

Substance: AYAHH
- amyloid nucleation score: 4.08 ± 0.072

Substance: RGMVE
- amyloid nucleation score: 0.587 ± 0.53

Substance: TPGCF
- amyloid nucleation score: inactive

Substance: LQRSHSWTQLPLCTSRLRLL
- amyloid nucleation score: 0.294 ± 1.1

Substance: MSQFGHVCSRAYFLRDDQAN
- amyloid nucleation score: inactive

Substance: LDPLRPG
- amyloid nucleation score: 1.14 ± 0.39

Substance: NPLYEGSFFWGWKFIDFRQH
- amyloid nucleation score: 0.131 ± 1

Substance: SENFLYLDVVFMCHSMIDRG
- amyloid nucleation score: 0.131 ± 0.54

Substance: KSCSMMFILWVTAGMDRWGH
- amyloid nucleation score: 6.25 ± 0.09

Substance: RFWDQACQAFMSSMVEGPVD
- amyloid nucleation score: -0.548 ± 1.1

Substance: FRCIDFR
- amyloid nucleation score: 0.674 ± 0.65

Substance: EWSRGLCTVQLA
- amyloid nucleation score: 0.058 ± 0.65

Substance: FGFYFLVSGLCRCDLPFHVL
- amyloid nucleation score: -0.757 ± 0.76

Substance: IMIILLVSVTKSNFTPQSMC
- amyloid nucleation score: 2.26 ± 0.23

Substance: SVLVVPVT
- amyloid nucleation score: 0.182 ± 0.79

Substance: LCVCRPGRRSIYLMVWVWWN
- amyloid nucleation score: -0.513 ± 0.53
